Measurements published in article PMC5015425, “Structural insights into Parkin substrate lysine targeting from minimal Miro substrates” (Scientific Reports, 2016).

Molecular target: the molecule itself
Assay: SEC-MALS; S200 10/300 GL column, 25 mM HEPES pH 7.4, 200 mM NaCl, 0.5 mM TCEP, 1 mM MgCl2, 0.5 mL/min, 10 °C; injected: hMiro1-C 16 mg/mL, hMiro2-C 7 mg/mL, hMiro1-CM 18 mg/mL

B1: human Miro1 cGTPase domain, aa 411-592 (hMiro1-C) (domain or fragment, UniProt Q8IXI2 411-592, looked up)
chain: KKQTQRNVFRCNVIGVKNCGKSGVLQALLGRNLMRQKKIREDHKSYYAINTVYVYGQEKYLLLHDISESEFLTEAEIICDVVCLVYDVSNPKSFEYCARIFKQHFMDSRIPCLIVAAKSDLHEVKQEYSISPTDFCRKHKMPPPQAFTCNTADAPSKDIFVKLTTMAMYPHVTQADLKSSTF
notes: human Miro1 (RhoT1), C-terminal GTPase (cGTPase) domain, residues 411-592; Dimer in the crystal and in solution; Details of expression are in the Supplementary Methods; also called hMiro1-CD; hMiro1 cGTPase; source: bacteria, purified (TALON beads, HiTrap S cation exchange, Superdex 200 when necessary)
stoichiometry N: 2
